Assay results taken from the RNAGym collection of RNA variant scans (doi:10.1073/pnas.2313332121).
Variants at the floor of the assay were thinned out.

B1: TPR 5TU (parent)
chain: GGAUCUUCUCGAUCUAACAAAAAAGACAAAUCUGCCACAAAGCUUGAGAGCAUCUUCGGAUGCAGAGGCGGCAGCCUUCGGUGGCGCGAUAGCGCCAACGUUCUCAACUAUGACACGCAAAACGCGUGCUCCGUUGAAUGGAGUUUAUCAUG

Variants of: B1
Test: polymerase ribozyme fitness, log enrichment relative to wild type (log ratio); higher = more active; in vitro selection for triplet polymerase activity
Method in brief: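 Fitness measures genotype enrichment against wild-type enrichment on a logarithmic scale, with inverse-variance-weighted averaging of replicates. The logarithm is base 2, and genotypes were kept only with ≥10 input reads and ≥1 read per output in Illumina sequencing. The sequenced libraries came from one triplicate in vitro selection round, including frozen incubation at −7 °C, of PCR-built, transcribed mutant libraries of each subunit of a heterodimeric triplet polymerase ribozyme.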

Variant | polymerase ribozyme fitness (log ratio)
C87A G128A U146C U148A | ≤ -4.2
A91C U109C | ≤ -4.2
C93U A119U A121C | -1.6
C95A G100U A106G A110G A142U | -4.01
C87G A91C A122G | ≤ -4.2
G88A C96U C108G | ≤ -4.2
C95U C99G G117A A120C A122G | -1.97
G86C A137G | -3.37
C87A G88C C96U C118U U146C | ≤ -4.2
C93G A113U | -4.11
A91C A115G | -4.07
C87U C99G U127A | ≤ -4.2
G94U G143A | -1.67
G94U G141U | -0.082
A89G A119C | -1.39
C93A A121G U144A | -1.18
C95A A98U U104G A106C | ≤ -4.2
C93A U135C | -3.56
C93U A115G | -3
G88A U109C A142C | -4.19
G94C C96U G112C U146C | ≤ -4.2
G88A U104G | ≤ -4.2
C93G C123U G140U | -4.17
A89G A98G C99G | -2.3

Variant | polymerase ribozyme fitness (log ratio)
C95U C149G | -3.59
C95U C149U | -0.647
C93U C96G | -1.58
C93U C96U | -3.28
G88A C93G C96A A110G C123G | ≤ -4.2
C96A A138U G140U | ≤ -4.2
G88A A97G U111G | ≤ -4.2
U90A C131A G143A | -4.19
G88U C99A U146C | ≤ -4.2
C96A A122U | -0.0649
G86C U135A | -3.03
C87U A113U A122G G136U U144C | -3.67
A91G C95U | -2.75
C87G A97U | ≤ -4.2
C87A G88U | ≤ -4.2
A89G A120C | -1.41
C96A A113U U144A | -2.58
C87U U109G U127C U135A | -4
C87A U135C | ≤ -4.2
C87U C93G | -4.18
C87U C93A | -3.93
C87A A89C G124C U148A | ≤ -4.2
U90C G94U A120U G124U | ≤ -4.2
G88C U144G | -3.7

Variant | polymerase ribozyme fitness (log ratio)
C93G A115G | -4.09
G92U C103G | -3.77
C96A C118A | -0.912
A91U A147C | ≤ -4.2
G92C A119G | 0.0407
G94C C96U | -1.08
G94A C125U | -1.67
G92A A121U | -2.71
G94A A137U | -3.87
A89G G126C | 0.0965
C87U A98U | -1.16
U90G G92C | ≤ -4.2
C96A A97U C118U | -0.741
G86U C116U | -1.03
G86U C116G | -1.04
G92A C103U C116U A121G | -3.47
G88A A97U U102C | ≤ -4.2
A89G A121G C131G | -3.53
G88U C132U | -3.92
C93U G136U | -3.31
C96A A107U | -2.87
C96A A107G | -4.2
G92A G141U | -1.8
U90A C105G | ≤ -4.2

Variant | polymerase ribozyme fitness (log ratio)
G92A A98U U111A C123U U144A A150C | ≤ -4.2
C87A A98U | -4.12
G86U C96U | -2.68
G92C C123U | -2.47
G88A G126A | -3.7
C87U G140A | -3.7
C87A G126C | -4.16
C87A G126U | ≤ -4.2
C93G C105U A137G | -4.06
A91G G141C | -2.86
A91G G141U | -1.92
C87U | -0.596
C87A | ≤ -4.2
G86C C105G | -3.67
G86U C99U C103G C131G | ≤ -4.2
C87A G141C | ≤ -4.2
C93U U104A | -1.88
A91G G92U G140A | ≤ -4.2
G92U C149U | -1.29
G86U A97U | -1.74
A91U U111G U127C | ≤ -4.2
C93A G100U U102G G117U A138C | ≤ -4.2
G88C G100A | ≤ -4.2
G88A C93G C108U A120U A137U | ≤ -4.2

Variant | polymerase ribozyme fitness (log ratio)
G92A A147U | -1.84
C87G C114U | -4.08
C93G C103G C118A G136U U146C | ≤ -4.2
C93U G140C | -3.57
C93U G140A | -3.82
G86U U101G | -2.21
G92A U145G | -2.54
A89G A142C | -1.45
G86U C93A | -0.194
C93A A97G A113G G124U | -4.12
G94A C132G | -3.64
C95U C125U | -0.278
G92A A106C | -3.04
G94A U102G G133A | ≤ -4.2
C87G C125U | ≤ -4.2
G88U G92C G117U | -3.57
C96A A120G | 0.0421
C93U C116G | -2.2
C87U A91U C96U | ≤ -4.2
C95A C96G U144C | -2.34
C87G G126A | -4.11
G86A G141C | -1.01
C93U U148G | -3.7
C87A C95U A107U | ≤ -4.2

Variant | polymerase ribozyme fitness (log ratio)
C87U G92U A97U C99G | ≤ -4.2
G86C C93G C105U | 0.694
C87U U102C A115C | -2.7
C87U G112A | -3.91
G94A A119C C132G A138U | ≤ -4.2
C93U G133C U134A G140A | ≤ -4.2
C95U A122C U130G U139A | -4.01
A91C G100U | ≤ -4.2
G88A C96U | -3.43
G88C C105A G117C G141A A147U | ≤ -4.2
G86U A121U | -0.702
A89G C95A | -2.08
G86U A97U C132A | ≤ -4.2
C93U U109G U144G | -1.39
G94C A150G | -1.6
C93A A122U | -2.45
C93A C103A U135A A138G | ≤ -4.2
C93A C103G A107U A119G G140A | ≤ -4.2
G88A C105U | -3.72
C87G A115U C116G | -3.97
A91C A137C A150C U151G | ≤ -4.2
A91G U144C | -2.47
U90G G141U | ≤ -4.2
G94A A115U C125U C132U A147U | ≤ -4.2

Variant | polymerase ribozyme fitness (log ratio)
C87A U90C C105U | -3.59
G94A A121U C132G U146A A150G | ≤ -4.2
C87A C99U | ≤ -4.2
C87A C95U G141C | -4.16
G92U G141C U146A | -0.994
G92C C108G G112C C123A G136C A137C A142G | ≤ -4.2
A91G A98G U130G C131A A150U | ≤ -4.2
U90A A119U G126A | ≤ -4.2
C96A G126A | -1.95
G86U A122G | -2.43
G86U A122U | -1.8
C93U C125U U151C G152A | -3.06
C95U G100U U148G | ≤ -4.2
G86C C99G A106G G124U G136A U148C | ≤ -4.2
A91C A98U C116A A121G U130G | ≤ -4.2
G94U A98U G141A | 0.104
A89C A110C | ≤ -4.2
G88C C118G G140A | ≤ -4.2
C87A A107G A110G A120G U139C G140A A147G | ≤ -4.2
G86U A89U | -2.62
G88U A97G A98U G133U A150U | ≤ -4.2
C93U C114A A115C | ≤ -4.2
C93A U109G C123G | -3.37
